This assay has as its target RSV phosphoprotein fragment P_(127–163) (respiratory syncytial virus (RSV)) (UniProt P12579). In words: SAXS; SEC-SAXS, 293 K, 200 µM P127-163 in 20 mM Na phosphate pH 6.5, 100 mM NaCl; scattering curve fitted with the NMR structure on the FoXs server.

A word on the stoichiometry N: it is the number of molecules, sites or subunits per partner or assembly.

For “RSV phosphoprotein fragment P_(127–163) (from UniProt P12579 127-163) (domain or fragment)”, the stoichiometry N was found to be 4.

These data come from paper PMC8392014.
